Tested on: HeLa cell pairs
Test: Dual whole cell patch clamp recording of coupling current in transfected HeLa cell pairs
Format: cell-based, human
Settings: for elect coupling: Table 3 (Example 2); for elect coupling / electrical coupling: HeLa cell pairs, 100 mV step, mean ± SEM; for electrical coupling: Table 6 (Example 4); for electrical coupling / functional channels in HeLa cell pairs (in words): transfected HeLa cell pairs, voltage step protocol −100 to +100 mV
Procedure: Coupling currents were recorded using simultaneous double whole-cell patch clamp recordings from isolated pairs of cells that were in contact with one another (determined visually) as previously described. Briefly, the pipette solution consisted of (mM): 130 CsCl, 10 EGTA, 10 HEPES, 3 Mg-ATP, 2 Na-ATP, 0.5 CaCl2, pH 7.3. The culture was bathed in a solution consisting of (mM): 140 NaCl, 5 HEPES, 5 glucose, 4 KCl, 2 CsCl, 2 CaCl2, 2 pyruvate, 1 BaCl2, pH 7.3. Transfected HeLas undergo electrophysiologic analysis in a blinded manner. Pairs of cells were chosen for study only if both expressed the GFP marker indicative of successful transfections; both stable and transient transfectants were analyzed. Patch pipettes were fabricated from borosilicate glass, and coupling currents were amplified by Axopatch 200A amplifiers, filtered at 1 KHz, and digitized at 5 KHz for subsequent analysis using pClamp software (Axon Instruments/Molecular Devices; Sunnyvale, Calif.). All experiments were carried out at room temperature (22° C.). Coupling current was quantified by measuring the peak current recorded in the pair when the neighboring cell received a 100 mV step membrane potential change (in both positive and negative directions). Step changes in membrane potential were delivered to each cell in the pair in sequence and the average current recorded in the neighboring cell was determined and divided by 100 to generate coupling current expressed in pA/mV. Means±SEM were calculated and statistical significance using a one-way analysis of variance and Tukey's post-hoc test, p<0.05.
Coupling current is quantified by measuring the peak current recorded in the pair when the neighboring cell receives a 100 mV step membrane potential change (in both positive and negative directions). Step changes in membrane potential are delivered to each cell in the pair in sequence and the average current recorded in the neighboring cell determined and divided by 100 to generate coupling current expressed in pA/mV (FIG. 6C). Replicate measurements (n=3-6) are made on at least two different days. […] The untransfected HeLa cell pairs also show minimal channel function, as predicted.
Electrophysiologic characteristics of GJIC were measured between HeLa cell pairs transfected with the mutant constructs (as indicated by EGFP expression) by dual whole cell patch clamp recording. All experiments were carried out in a blinded manner. Coupling current is quantified by measuring the peak current recorded in the pair when the neighboring cell receives a 100 mV step membrane potential change (in both positive and negative directions). Step changes in membrane potential are delivered to each cell in the pair in sequence and the average current recorded in the neighboring cell determined and divided by 100 to generate coupling current expressed in pA/mV. Untransfected HeLa cells and cells transfected with empty vector (i.e., no hCx47) were used as additional controls.

B1: G146S: Cx47 missense mutant G146S (436G>A), intracellular loop, construct expressed in HeLa cells or LECs (protein, listed as Homo sapiens)
chain: MSWSFLTRLLEEIHNHSTFVGKVWLTVLVVFRIVLTAVGGEAIYSDEQAKFTCNTRQPGCDNVCYDAFAPLSHVRFWVFQIVVISTPSVMYLGYAVHRLARASEQERRRALRRRPGPRRAPRAHLPPPHAGWPEPADLGEEEPMLSLGEEEEEEETGAAEGAGEEAEEAGAEEACTKAVGADGKAAGTPGPTGQHDGRRRIQREGLMRVYVAQLVARAAFEVAFLVGQYLLYGFEVRPFFPCSRQPCPHVVDCFVSRPTEKTVFLLVMYVVSCLCLLLNLCEMAHLGLGSAQDAVRGRRGPPASAPAPAPRPPPCAFPAAAAGLACPPDYSLVVRAAERARAHDQNLANLALQALRDGAAAGDRDRDSSPCVGLPAASRGPPRAGAPASRTGSATSAGTVGEQGRPGTHERPGAKPRAGSEKGSASSRDGKTTVWI
  elect coupling: 16.2 pA/mV
  electrical coupling: 32.4 pA/mV
  electrical coupling / functional channels in HeLa cell pairs (in words): well coupled

B2: WT-hCx47: human wild type Cx47 construct in bicistronic pIRES2-EGFP vector, expressed in HeLa cells or LECs (protein, UniProt Q5T442 1-439, looked up)
Gap junction gamma-2 protein: MTNMSWSFLTRLLEEIHNHSTFVGKVWLTVLVVFRIVLTAVGGEAIYSDEQAKFTCNTRQPGCDNVCYDAFAPLSHVRFWVFQIVVISTPSVMYLGYAVHRLARASEQERRRALRRRPGPRRAPRAHLPPPHAGWPEPADLGEEEPMLGLGEEEEEEETGAAEGAGEEAEEAGAEEACTKAVGADGKAAGTPGPTGQHDGRRRIQREGLMRVYVAQLVARAAFEVAFLVGQYLLYGFEVRPFFPCSRQPCPHVVDCFVSRPTEKTVFLLVMYVVSCLCLLLNLCEMAHLGLGSAQDAVRGRRGPPASAPAPAPRPPPCAFPAAAAGLACPPDYSLVVRAAERARAHDQNLANLALQALRDGAAAGDRDRDSSPCVGLPAASRGPPRAGAPASRTGSATSAGTVGEQGRPGTHERPGAKPRAGSEKGSASSRDGKTTVWI
  elect coupling: 31.6 pA/mV
  electrical coupling: 35.9 pA/mV
  electrical coupling / functional channels in HeLa cell pairs (in words): show evidence of voltage-dependent gating
Listed as WT hCx47
  electrical coupling / functional channels in HeLa cell pairs (in words): well coupled
Listed as WT-hCX47-EGFP
  electrical coupling / functional channels in HeLa cell pairs (in words): well coupled

Reference: patent US9260754B2, “Connexin mutation detection for lymphatic variation and disease” (University of Pittsburgh—Of the Commonwealth System of …, priority 2010, dated 2016)
